From paper PMC4067995 come the findings set out here.

For orientation: stoichiometry N means the number of molecules, sites or subunits per partner or assembly.

The target in this experiment is V1 (A3B3DF), the soluble subcomplex of TtATPase without peripheral stalks (Thermus thermophilus strain HB8) (UniProt Q56403). Description: native MS.
Chain of V1 (A3B3DF), the soluble subcomplex of TtATPase without peripheral stalks (Thermus thermophilus strain HB8) (Q56403 whole entry, chain 1 of 4): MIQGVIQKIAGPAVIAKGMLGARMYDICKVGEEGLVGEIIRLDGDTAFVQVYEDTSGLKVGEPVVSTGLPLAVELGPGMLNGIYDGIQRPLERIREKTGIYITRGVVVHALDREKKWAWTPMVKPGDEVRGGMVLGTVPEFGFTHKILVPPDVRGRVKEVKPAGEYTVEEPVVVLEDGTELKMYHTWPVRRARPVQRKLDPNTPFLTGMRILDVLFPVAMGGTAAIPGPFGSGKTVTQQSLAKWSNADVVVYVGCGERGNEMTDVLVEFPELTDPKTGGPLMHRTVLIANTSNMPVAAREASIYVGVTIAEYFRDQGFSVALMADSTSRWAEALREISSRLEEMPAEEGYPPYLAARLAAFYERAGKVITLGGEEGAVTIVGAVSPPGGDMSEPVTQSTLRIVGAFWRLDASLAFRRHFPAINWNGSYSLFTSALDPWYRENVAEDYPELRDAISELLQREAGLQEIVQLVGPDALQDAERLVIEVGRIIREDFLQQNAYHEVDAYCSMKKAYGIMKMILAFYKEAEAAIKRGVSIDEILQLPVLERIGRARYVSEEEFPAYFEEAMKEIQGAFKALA
Chain of V1 (A3B3DF), the soluble subcomplex of TtATPase without peripheral stalks (Thermus thermophilus strain HB8) (Q56404 whole entry, chain 2 of 4, further chain): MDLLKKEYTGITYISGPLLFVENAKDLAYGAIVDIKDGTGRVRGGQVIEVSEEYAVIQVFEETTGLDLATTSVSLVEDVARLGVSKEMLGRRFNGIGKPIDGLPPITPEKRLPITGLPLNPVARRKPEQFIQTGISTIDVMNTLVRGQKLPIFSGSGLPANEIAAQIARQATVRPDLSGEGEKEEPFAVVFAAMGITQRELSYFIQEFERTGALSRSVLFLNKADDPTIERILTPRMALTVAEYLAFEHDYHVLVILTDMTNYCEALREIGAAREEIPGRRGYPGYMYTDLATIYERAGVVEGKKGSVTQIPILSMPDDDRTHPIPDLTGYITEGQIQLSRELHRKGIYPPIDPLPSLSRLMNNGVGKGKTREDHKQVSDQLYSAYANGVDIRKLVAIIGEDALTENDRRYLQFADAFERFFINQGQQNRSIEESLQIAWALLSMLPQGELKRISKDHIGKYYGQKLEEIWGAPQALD
Chain of V1 (A3B3DF), the soluble subcomplex of TtATPase without peripheral stalks (Thermus thermophilus strain HB8) (O87880 whole entry, chain 3 of 4, further chain): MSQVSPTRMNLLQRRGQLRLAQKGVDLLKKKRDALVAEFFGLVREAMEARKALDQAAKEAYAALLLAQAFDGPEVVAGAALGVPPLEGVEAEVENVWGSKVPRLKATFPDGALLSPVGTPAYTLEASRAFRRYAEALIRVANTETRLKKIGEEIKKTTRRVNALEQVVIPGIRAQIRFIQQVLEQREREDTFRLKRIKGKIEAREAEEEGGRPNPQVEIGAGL
Chain of V1 (A3B3DF), the soluble subcomplex of TtATPase without peripheral stalks (Thermus thermophilus strain HB8) (P74903 whole entry, chain 4 of 4, further chain): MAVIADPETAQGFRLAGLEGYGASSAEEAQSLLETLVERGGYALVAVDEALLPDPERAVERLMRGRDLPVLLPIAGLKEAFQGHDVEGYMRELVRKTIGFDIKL

Substance “peripheral EG stalk of TtATPase (from UniProt P74901 1-188) (complex)” registered a stoichiometry N of 2.
